Experimental findings from patent publication US20230242645A1 (WUXI BIOLOGICS SHANGHAI, published 2023) are described below.

Assay [1] concerns the target T1, human PD-L1 extracellular domain, mouse Fc (PD-L1.ECD.mFc, W3153-hPro1.ECD.mFc) (human, UniProt Q9NZQ7 19-238).
T1 construct: extracellular domain; also called WBP315-hPro1.ECD.mFc; antigen-2; not shown: mouse Fc tag at the C-terminus
Briefly: dual binding ELISA: plate coated with human VEGF, antibody titrated, then biotinylated PD-L1.ECD.mFc at 0.5 ug/ml. (In general: ELISA stands for enzyme-linked immunosorbent assay.)

Assay [2] addresses T2, human PD-L1 on CHO-K1 cells (WBP315.CHO-K1.hPro1.C11) (human, UniProt Q9NZQ7 19-290).
T2 construct: whole, on cells; also called engineered human PD-L1 expressing cells
Briefly: FACS on human PD-L1 expressing CHO-K1 cells, FITC anti-human IgG. On the procedure: Engineered human PD-L1 expressing cells (WBP315.CHO-K1.hPro1.C11) were seeded at 1×10⁵ cells/well in U-bottom 96-well plates. […] UIgG1 was added to the cells. Plates were incubated at 4° C. for 1 hour. After wash, FITC-labeled goat anti-human IgG (Jackson ImmunoResearch, 109-095-008) was added to each well and the plates were incubated at 4° C. for 1 hour. The binding of the antibodies onto the cells was tested by flow cytometry and the mean fluorescence intensity (MFI) was analyzed by FlowJo.

Assay [3] addresses T3, mouse PD-L1 on 293F cells (WBP315.293F.mPro1.C1) (mouse, UniProt Q9EP73 19-290).
T3 construct: whole, on cells; also called engineered mouse PD-L1 expressing cells
Briefly: FACS on mouse PD-L1 expressing 293F cells, FITC anti-human IgG. On the procedure:
Engineered mouse PD-L1 expressing cells (WBP315.293F.mPro1.C1) were seeded at 1×10⁵ cells/well in U-bottom 96-well plates. Serial dilutions of the different antibodies were added to the cells. Plates were incubated at 4° C. for 1 hour. After wash, FITC-labeled goat anti-human IgG (Jackson ImmunoResearch, 109-095-008) was added to each well and the plates were incubated at 4° C. for 1 hour. […] UIgG1 onto the cells was tested by flow cytometry and the mean fluorescence intensity (MFI) was analyzed by FlowJo.

The target of assay [4] is T4, mouse VEGF (WBP325-mPro1, Sino Biological, 50159-MNAB) (mouse, UniProt Q00731-2 27-190).
T4 construct: Bought protein
T4 sequence (looked up): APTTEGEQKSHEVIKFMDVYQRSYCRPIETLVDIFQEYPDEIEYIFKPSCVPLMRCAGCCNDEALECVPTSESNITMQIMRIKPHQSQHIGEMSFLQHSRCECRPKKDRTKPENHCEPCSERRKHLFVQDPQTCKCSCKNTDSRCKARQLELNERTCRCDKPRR
Briefly: ELISA, plate coated with mouse VEGF, detection with anti-human IgG Fc-HRP.

The target in assay [5] is T5, cynomolgus monkey PD-L1 on 293F cells (WBP315.293F.cPro1.2A) (cynomolgus monkey, UniProt G7PSE7 19-290).
T5 construct: also called cynomolgus PD-L1; cyno PD-L1
T5 sequence (G7PSE7 entry or part of it limits assumed): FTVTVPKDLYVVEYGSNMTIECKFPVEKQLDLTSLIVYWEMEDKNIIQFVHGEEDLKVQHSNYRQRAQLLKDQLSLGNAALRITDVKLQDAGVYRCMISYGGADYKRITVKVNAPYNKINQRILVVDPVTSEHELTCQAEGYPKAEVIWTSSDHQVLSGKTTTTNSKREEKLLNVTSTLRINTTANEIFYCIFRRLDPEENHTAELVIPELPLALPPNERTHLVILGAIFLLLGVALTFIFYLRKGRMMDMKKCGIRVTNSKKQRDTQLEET
Briefly: FACS on cynomolgus PD-L1 expressing 293F cells, FITC anti-human IgG. On the procedure: Engineered cynomolgus monkey PD-L1 expressing cells (WBP315.293F.cPro1.2A) were seeded at 1×10⁵ cells/well in U-bottom 96-well plates. […] UIgG1 was added to the cells. Plates were incubated at 4° C. for 1 hour. After wash, FITC-labeled goat anti-human IgG (Jackson ImmunoResearch, 109-095-008) was added to each well and the plates were incubated at 4° C. for 1 hour. The binding of the antibodies onto the cells was tested by flow cytometry and the mean fluorescence intensity (MFI) was analyzed by FlowJo.

Assay [6] addresses T2, human PD-L1 on CHO-K1 cells …. The assay can be described thus: FACS competition on human PD-L1 expressing CHO-K1 cells: antibody premixed with mouse Fc tagged human PD-1 at 5 ug/ml, PE anti-mouse IgG; blocked ligand human PD-1. How it is done: Human PD-L1 expressing CHO-K1 cells (WBP315.CHO-K1.hPro1.C11) were seeded at 1×10⁵ cells/well in 96-well U-bottom plates. […] After washing, PE-labeled anti-mouse IgG was added and incubated with cells at 4° C. for 45 minutes. Cells were washed twice and MFI of the cells was measured by a flow cytometer and analyzed by FlowJo.

The target of assay [7] is T3, mouse PD-L1 on 293F cells …. The assay can be described thus: FACS competition on mouse PD-L1 expressing cells: antibody premixed with mouse Fc tagged murine PD-1 at 5 ug/ml, PE anti-mouse IgG; blocked ligand mouse PD-1. On the procedure:
Mouse PD-L1 expressing […] (WBP315.293F.mPro1.C1) were seeded at 1×10⁵ cells/well in 96-well U-bottom plates. […] After washing, PE-labeled anti-mouse IgG was added and incubated with cells at 4° C. for 1 hour. Cells were washed twice and MFI of the cells was measured by a flow cytometer and analyzed by FlowJo.

The target of assay [8] is T6, human PD-L1 extracellular domain, his tag (W315-hPro1.ECD.his) (human, UniProt Q9NZQ7 19-238).
T6 construct: extracellular domain; Analyte in SPR; also called W315-hPro1.ECD.his (PD-L1); ECD of PD-L1; not shown: C-terminal his tag (6xhis)
T6 sequence (Q9NZQ7 19-238): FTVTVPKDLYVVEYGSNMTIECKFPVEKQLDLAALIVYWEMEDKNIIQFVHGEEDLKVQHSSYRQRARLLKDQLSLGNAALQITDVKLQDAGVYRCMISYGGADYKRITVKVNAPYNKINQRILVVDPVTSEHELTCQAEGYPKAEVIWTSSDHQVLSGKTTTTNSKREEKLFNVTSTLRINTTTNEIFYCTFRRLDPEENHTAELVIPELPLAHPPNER
The assay can be described thus: SPR (Biacore T200), antibody captured on anti-human Fc, antigen as analyte, 25 °C. On the procedure: Biacore T200, Series S Sensor Chip CM5, Amine Coupling Kit, and 10×HBS-EP were purchased from GE Healthcare. The antibody was captured onto the anti-human Fc IgG (Jackson, 109-005-098) surface immobilized on CM5-biosensor chip (GE Healthcare Inc.). The assay was performed at 25° C. with HBS-EP+ buffer (GE Healthcare Inc.) as running and dilution buffer. Serially diluted PD-L1 antigen or VEGF antigen (W315-hPro1.ECD.his or W325-hPro1.his) and running buffer were injected for an association phase and followed dissociation phase detection. Regeneration of the chip surface was reached by an injection of 10 mM Glycine, pH 1.5.
The on-rate constant (ka) and off-rate constant (kd) were also measured in the mean time. Final data of each interaction was deducted from reference channel and buffer channel data.
(Surface plasmon resonance follows binding to a sensor surface in real time, without labels.)

T3 sequence (Q9EP73 19-290): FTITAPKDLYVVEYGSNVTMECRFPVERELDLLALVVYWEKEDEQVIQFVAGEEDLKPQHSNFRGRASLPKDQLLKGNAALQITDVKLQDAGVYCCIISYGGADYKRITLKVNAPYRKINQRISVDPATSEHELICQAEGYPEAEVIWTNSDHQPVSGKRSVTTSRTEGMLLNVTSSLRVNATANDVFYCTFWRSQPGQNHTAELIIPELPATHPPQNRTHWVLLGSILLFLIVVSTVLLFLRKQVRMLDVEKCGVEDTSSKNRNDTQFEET
T2 sequence (Q9NZQ7 19-290): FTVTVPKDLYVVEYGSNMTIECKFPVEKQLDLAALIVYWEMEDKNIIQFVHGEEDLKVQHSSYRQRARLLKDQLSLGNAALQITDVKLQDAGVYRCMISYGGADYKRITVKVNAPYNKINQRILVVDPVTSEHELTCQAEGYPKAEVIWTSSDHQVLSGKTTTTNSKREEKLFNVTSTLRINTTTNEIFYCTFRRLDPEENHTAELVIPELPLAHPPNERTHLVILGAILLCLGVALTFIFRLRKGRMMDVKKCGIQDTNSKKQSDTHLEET
T1 sequence (Q9NZQ7 19-238): as the sequence (Q9NZQ7 19-238) above

B1: WBP325-BMK3.uIgG1 (Bevacizumab) (antibody, V domains shown)
VH: EVQLVESGGGLVQPGGSLRLSCAASGYTFTNYGMNWVRQAPGKGLEWVGWINTYTGEPTYAADFKRRFTFSLDTSKSTAYLQMNSLRAEDTAVYYCAKYPHYYGSSHWYFDVWGQGTLVTVSS
VL: DIQMTQSPSSLSASVGDRVTITCSASQDISNYLNWYQQKPGKAPKVLIYFTSSLHSGVPSRFSGSGSGTDFTLTISSLQPEDFATYYCQQYSTVPWTFGQGTKVEIK
notes: also called W325-BMK3.uIgG1; W325-BMK3
As to B1, the binding result in assay [1] was “no binding (tested: 100 nM)”.

B2: W3156-AP3R2-1A3-z12-hIgG1 (Fc fusion)
chain: EVQLVESGGGLVQPGGSLRLSCAASGHFSNLAVNWFRQAPGKERELVAGILWSGGSTFYADSVKGRFTISRGNAENMLYLQMNSLRAEDTAVYYCNTGTNWGQGTLVTVSS
notes: VHH in hIgG1 format as tested; The construction of the hIgG1 format is not described; also called anti-PD-L1 VHH antibody; parental anti-PD-L1 antibody; not shown: human IgG1 part (hIgG1) named in the label only
With B2, the EC50 (read off the curve) – broadly, the midpoint of the concentration-response curve – was approximately 0.05 nM in assay [2], approximately 2 nM in assay [3] and approximately 2 nM in assay [5]. In assay [4], the binding result is “no binding (tested: 100 nM)”. Besides, the “IC50 (read off the curve)” value was approximately 0.04 nM in assay [6] and approximately 2 nM in assay [7]. Moreover, the affinity in assay [8], expressed as Kd, was 0.16 nM. Further, in assay [8], the koff – broadly, the rate constant with which the complex falls apart – turned out to be 0.000291 s⁻¹. Also, the kon – broadly, the second-order rate constant of association – in assay [8] came out at 1.82e+06 M⁻¹ s⁻¹.
